Tested on: EV71 structural polyprotein P1 (Wt HK08), unprocessed (98 kDa)

Row | Substance | proteolytic processing of P1 in planta, anti-VP1 western blot (vectors 1300+1315) | proteolytic processing of P1 in planta, anti-VP1 western blot (vectors 1300+1310)
1 | EV71 protease 3CD (Wt GDFS08) | the 98 kDa signal completely disappears and a new product is detected that corresponds in molecular weight to VP1 (33.5 kDa) | –
2 | EV71 protease 3CD (Wt HK08) | – | the 98 kDa signal completely disappears and a new product is detected that corresponds in molecular weight to VP1 (33.5 kDa)
